Data reported in patent US20240336672A1.

Assays:
Details in all cases: remark: other sources report otherwise
[1] = target: T1, SARS-CoV-2 Spike (S) protein on cells (S-Flow assay) (SARS-CoV-2), P0DTC2; assay: S-Flow flow cytometry, spike-expressing cells
[2] = target: SARS-CoV-2 RBD domain, Wuhan (SARS-CoV-2); assay: SPR (Biacore), antibody immobilised
[3] = target: SARS-CoV-2 RBD domain, Wuhan (SARS-CoV-2); assay: competition ELISA vs bio-Cv2.1169
[4] = target: SARS-CoV-2 RBD domain, Wuhan (SARS-CoV-2); assay: competition ELISA vs bio-Cv2.3194
[5] = target: SARS-CoV-2 RBD domain, Wuhan (SARS-CoV-2); assay: ELISA; set-up: unit not given beside the values
[6] = target: SARS-CoV-2 RBD domain, Wuhan (SARS-CoV-2); assay: competition ELISA vs bio-Cv2.5213
[7] = target: SARS-CoV-2 RBD domain, Wuhan (SARS-CoV-2); assay: RBD-ACE2 competition ELISA; set-up: unit not given beside the values
[8] = target: T1, SARS-CoV-2 Spike (S) protein on cells …; assay: flow cytometry, transfected cells
[9] = target: SARS-CoV-2 RBD domain, Wuhan (SARS-CoV-2); assay: competition ELISA vs bio-Cv2.3235
[10] = target: CoV-MERS Spike ectodomain (MERS-CoV), K9N5Q8; assay: ELISA, coated antigen
[11] = target: SARS-CoV-1 Spike ectodomain (SARS-CoV-1), P59594; assay: ELISA, coated antigen; also: test concentration or dose not given here
[12] = target: SARS-CoV-2 RBD domain, Wuhan (SARS-CoV-2); assay: ELISA, coated antigen
[13] = target: SARS-CoV-2 RBD domain, Wuhan (SARS-CoV-2); assay: RBD-ACE2 competition ELISA; set-up: unit not given beside the values; remark: listed apart in the source
[14] = target: SARS-CoV-2 RBD domain, Wuhan (SARS-CoV-2); assay: competition ELISA vs bio-Cv2.1353
[15] = target: SARS-CoV-2 RBD domain, Wuhan (SARS-CoV-2); assay: RBD/ACE2 blocking ELISA
[16] = target: SARS-CoV-2 RBD domain, Wuhan (SARS-CoV-2); assay: ELISA; set-up: unit not given beside the values; remark: listed apart in the source
[17] = target: T1, SARS-CoV-2 Spike (S) protein on cells …; assay: flow cytometry (Mock 2.5)
[18] = target: SARS-CoV-2 RBD domain, Wuhan (SARS-CoV-2); assay: ELISA
[19] = target: SARS-CoV-2 RBD domain, Wuhan (SARS-CoV-2); assay: ELISA; set-up: unit not given beside the values; remark: listed apart in the source
[20] = target: SARS-CoV-2 RBD domain, Wuhan (SARS-CoV-2); assay: SPR (Biacore), antibody coupled to CM5 chip, viral protein as analyte
For % inhibition (competition) in this document: test concentration or dose not given here.

B1: Cv2.5213 (recombinant human IgG1) (antibody)
heavy: EVQLVESGGGLIQPGGSLRLSCAASGFTVSSNYMSWVRQAPGKGLEWVSLIYSGGSTYYADSVKGRFTISRDNSKNTLYLQMNSLRAEDTAVYYCARDLNYYGMDVWGQGATVTVSSASTKGPSVFPLAPSSKSTSGGTAALGCLVKDYFPEPVTVSWNSGALTSGVHTFPAVLQSSGLYSLSSVVTVPSSSLGTQTYICNVNHKPSNTKVDKKVEPKSCDKTHTCPPCPAPELLGGPSVFLFPPKPKDTLMISRTPEVTCVVVDVSHEDPEVKFNWYVDGVEVHNAKTKPREEQYNSTYRVVSVLTVLHQDWLNGKEYKCKVSNKALPAPIEKTISKAKQPREPQVYTLPPSRDELTKNQVSLTCLVKGFYPSDIAVEWESNGQPENNYKTTPPVLDSDGSFFLYSKLTVDKSRWQQGNVFSCSVMHEALHNHYTQKSLSLSPGK
light: not shown
[1]
  S-Flow (%): 95%
  S-Flow (MFI): 270000 MFI
[2]
  Kd: 162 nM
[3]
  % inhibition (competition): 43
[4]
  % inhibition (competition): 61
[5]
  AUC (RBD bind.): 13
[6]
  % inhibition (competition): 77
[7]
  AUC (RBD block.): 141
[8]
  log10 ΔgMFI: 4
[9]
  % inhibition (competition): 80
[10]
  ELISA OD: 0.1 OD
[11]
  ELISA OD: 0.1 OD
[12]
  ELISA OD: 3.5 OD
[13]
  AUC (RBD block.): 283
[14]
  % inhibition (competition): 67

B2: Cv2.3235 (recombinant human IgG1) (antibody)
heavy: EVQLVESGGGLIQPGGSLRLSCAASGFTVSRNYMSWVRQAPGKGLEWVSVIYSGGSTFYADSVKGRFTISRDNSKNTLYLQMNSLRAEDTAVYYCARDGDYYGMDVWGQGTTVTVSSASTKGPSVFPLAPSSKSTSGGTAALGCLVKDYFPEPVTVSWNSGALTSGVHTFPAVLQSSGLYSLSSVVTVPSSSLGTQTYICNVNHKPSNTKVDKKVEPKSCDKTHTCPPCPAPELLGGPSVFLFPPKPKDTLMISRTPEVTCVVVDVSHEDPEVKFNWYVDGVEVHNAKTKPREEQYNSTYRVVSVLTVLHQDWLNGKEYKCKVSNKALPAPIEKTISKAKQPREPQVYTLPPSRDELTKNQVSLTCLVKGFYPSDIAVEWESNGQPENNYKTTPPVLDSDGSFFLYSKLTVDKSRWQQGNVFSCSVMHEALHNHYTQKSLSLSPGK
light: DIQMTQSPSFLSASVGDRVTITCRASQGISSFLAWYQQKPGKAPKLLIYGASTLQSGVTSRFSGSGSGTEFTLTISSLQPEDFATYYCQRLDSYPPITFGQGTRLEIKRTVAAPSVFIFPPSDEQLKSGTASVVCLLNNFYPREAKVQWKVDNALQSGNSQESVTEQDSKDSTYSLSSTLTLSKADYEKHKVYACEVTHQGLSSPVTKSFNRGEC
[1]
  S-Flow (%): 97%
  S-Flow (MFI): 170000 MFI
[2]
  Kd: 280 nM
[3]
  % inhibition (competition): 14
[4]
  % inhibition (competition): 37
[5]
  AUC (RBD bind.): 13
[6]
  % inhibition (competition): 47
[7]
  AUC (RBD block.): 114
[8]
  log10 ΔgMFI: 4
[9]
  % inhibition (competition): 65
[10]
  ELISA OD: 0.2 OD
[11]
  ELISA OD: 0.2 OD
[12]
  ELISA OD: 3.9 OD
[13]
  AUC (RBD block.): 229
[14]
  % inhibition (competition): 37

B3: ADG-2 (antibody, V domains shown)
VH: EVQLVESGGGLVKPGGSLRLSCAASGFTFSSYYMNWVRQAPGKGLEWVSSISEDGYSTYYPDSLKGRFTISRDSAKNSLYLQMNSLRADDTAVYYCARDFSGHTAWAGTGFEYWGQGTLVTVSS
VL: QSVLTQPPSVSGAPGQRITISCTGSSSNIGAGYDVHWYQQLPGTAPKLLIYGSSSRNSGVPDRFSGSKSGTSASLAITGLQAEDEADYYCQSYDSSLSVLYTFGTGTKVTVL
[15]
  % binding inhibition: 94%
[16]
  AUC: 3

B4: Adintrevimab (antibody, V domains shown)
VH: EVQLVESGGGLVKPGGSLRLSCAASGFTFSSYYMNWVRQAPGKGLEWVSSISEDGYSTYYPDSLKGRFTISRDSAKNSLYLQMNSLRADDTAVYYCARDFSGHTAWAGTGFEYWGQGTLVTVSS
VL: QSVLTQPPSVSGAPGQRITISCTGSSSNIGAGYDVHWYQQLPGTAPKLLIYGSSSRNSGVPDRFSGSKSGTSASLAITGLQAEDEADYYCQSYDSSLSVLYTFGTGTKVTVL
[17]
  log10 ΔgMFI: 4.4
[18]
  OD405nm: 3.3

B5: COV2-2130 (antibody, V domains shown)
VH: EVQLVESGGGLVKPGGSLRLSCAASGFTFRDVWMSWVRQAPGKGLEWVGRIKSKIDGGTTDYAAPVKGRFTISRDDSKNTLYLQMNSLKTEDTAVYYCTTAGSYYYDTVGPGLPEGKFDYWGQGTLVTVSS
VL: not shown
[15]
  % binding inhibition: 96%
[16]
  AUC: 3

B6: Cilgavimab (antibody, V domains shown)
VH: EVQLVESGGGLVKPGGSLRLSCAASGFTFRDVWMSWVRQAPGKGLEWVGRIKSKIDGGTTDYAAPVKGRFTISRDDSKNTLYLQMNSLKTEDTAVYYCTTAGSYYYDTVGPGLPEGKFDYWGQGTLVTVSS
VL: not shown
[18]
  OD405nm: 3.2

B7: Cv2.1353 (recombinant human IgG1) (antibody)
heavy: EVQLVESGGGLVQPGGSLRLSCAASGVTVSSNYMNWVRQAPGKGLEWVSVIYSGGSTFYADSVKGRFIISRDNSKNTLYLQMNSLKTEDTAVYYCARDLGPMGFDIWGQGTMVTVSSASTKGPSVFPLAPSSKSTSGGTAALGCLVKDYFPEPVTVSWNSGALTSGVHTFPAVLQSSGLYSLSSVVTVPSSSLGTQTYICNVNHKPSNTKVDKKVEPKSCDKTHTCPPCPAPELLGGPSVFLFPPKPKDTLMISRTPEVTCVVVDVSHEDPEVKFNWYVDGVEVHNAKTKPREEQYNSTYRVVSVLTVLHQDWLNGKEYKCKVSNKALPAPIEKTISKAKQPREPQVYTLPPSRDELTKNQVSLTCLVKGFYPSDIAVEWESNGQPENNYKTTPPVLDSDGSFFLYSKLTVDKSRWQQGNVFSCSVMHEALHNHYTQKSLSLSPGK
light: DIQMTQSPSFLSASVGDRVTITCRASQGISSYLAWYQQKPGKAPKLLIYAASTLQSGVPSRFSGSGSGTEFTLTISSLQPEDFATYYCQQLNSDPPVTFGPGTKVDIKRTVAAPSVFIFPPSDEQLKSGTASVVCLLNNFYPREAKVQWKVDNALQSGNSQESVTEQDSKDSTYSLSSTLTLSKADYEKHKVYACEVTHQGLSSPVTKSFNRGEC
[1]
  S-Flow (%): 95%
  S-Flow (MFI): 270000 MFI
[2]
  Kd: 2.24 nM
[3]
  % inhibition (competition): 62
[4]
  % inhibition (competition): 74
[5]
  AUC (RBD bind.): 12
[6]
  % inhibition (competition): 78
[7]
  AUC (RBD block.): 158
[8]
  log10 ΔgMFI: 4
[9]
  % inhibition (competition): 80
[10]
  ELISA OD: 0.1 OD
[11]
  ELISA OD: 0.1 OD
[12]
  ELISA OD: 3.5 OD
[13]
  AUC (RBD block.): 315
[14]
  % inhibition (competition): 74
[19]
  AUC (RBD bind.): 13
[20]
  Kd: < 0.001 nM
